± gives the standard deviation of the averaged measurements.
B1: library; a variant is named by its letters at N, in order (parent)
chain: GCUGUCACCGGUGCUUGGUACGUUAUAUUCAGCCGGUCUGAUGAGUCUNNNNNNAGACGAAACAGC

What was measured:
[1] = variants of: B1; assay: normalized RNA/DNA level without ligand (relative to sTRSVctl = 100) (log10 (% of sTRSVctl)); HEK293T overexpressing SLC46A1; higher = less ribozyme self-cleavage, higher mRNA level; details: without (6R,S)-folinic acid; ligand present: no
Method in brief: (§1)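 For each 6-well well, 4 µg of library plasmid encoding mCherry-linked ribozyme switches, or eGFP-linked ones in some ligand experiments, was transfected into HEK293T. Any ligand was added 1 h before transfection, and RNA was extracted with EDTA 72 h after it, then reverse-transcribed, amplified, barcoded and sequenced. RNA level was obtained by dividing RNA reads by DNA reads, normalizing to a spiked-in non-cleaving sequence or to the top sequences, then scaling and log-transforming. The top set was 25 sequences, scaling was ×100 with log10, and ≥100 DNA reads were required.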

[2] = variants of: B1; assay: normalized RNA/DNA level with ligand (relative to sTRSVctl = 100) (log10 (% of sTRSVctl)); HEK293T overexpressing SLC46A1; ligand concentration (+) RNA-Seq: 6 mM; higher = less ribozyme self-cleavage, higher mRNA level; details: with (6R,S)-folinic acid; ligand present: yes
Method in brief: as §1

Variant | normalized RNA/DNA level without ligand (log10) [1] | normalized RNA/DNA level with ligand (log10) [2]
GCUGUCACCGGUGCUUGGUACGUUAUAUUCAGCCGGUCUGAUGAGUCUGCUGUGAGACGAAACAGC | 2.03 ± 0.028 | 2.04 ± 0.055
GCUGUCACCGGUGCUUGGUACGUUAUAUUCAGCCGGUCUGAUGAGUCUUCUGUGAGACGAAACAGC | 1.773 ± 0.0022 | 2 ± 0.049
GCUGUCACCGGUGCUUGGUACGUUAUAUUCAGCCGGUCUGAUGAGUCUUCUGUCAGACGAAACAGC | 2.056 ± 0.0093 | 2.07 ± 0.075
GCUGUCACCGGUGCUUGGUACGUUAUAUUCAGCCGGUCUGAUGAGUCUGCUUCCAGACGAAACAGC | 2.029 ± 0.0087 | 2.04 ± 0.034
GCUGUCACCGGUGCUUGGUACGUUAUAUUCAGCCGGUCUGAUGAGUCUGCUUAGAGACGAAACAGC | 1.9687 ± 0.00031 | 2.015 ± 0.013
GCUGUCACCGGUGCUUGGUACGUUAUAUUCAGCCGGUCUGAUGAGUCUGCUUAUAGACGAAACAGC | 1.942 ± 0.015 | 2.003 ± 0.006
GCUGUCACCGGUGCUUGGUACGUUAUAUUCAGCCGGUCUGAUGAGUCUCCUUAAAGACGAAACAGC | 2.01 ± 0.0061 | 2.003 ± 0.013
GCUGUCACCGGUGCUUGGUACGUUAUAUUCAGCCGGUCUGAUGAGUCUCCUUACAGACGAAACAGC | 2.02 ± 0.027 | 2.056 ± 0.014
GCUGUCACCGGUGCUUGGUACGUUAUAUUCAGCCGGUCUGAUGAGUCUCCUUAGAGACGAAACAGC | 1.934 ± 0.015 | 1.96 ± 0.046
GCUGUCACCGGUGCUUGGUACGUUAUAUUCAGCCGGUCUGAUGAGUCUACUUCAAGACGAAACAGC | 2.01 ± 0.03 | 2 ± 0.04
GCUGUCACCGGUGCUUGGUACGUUAUAUUCAGCCGGUCUGAUGAGUCUUCUUCAAGACGAAACAGC | 2.028 ± 0.0079 | 2.04 ± 0.046
GCUGUCACCGGUGCUUGGUACGUUAUAUUCAGCCGGUCUGAUGAGUCUUCUUCCAGACGAAACAGC | 2.026 ± 0.018 | 2.043 ± 0.018
GCUGUCACCGGUGCUUGGUACGUUAUAUUCAGCCGGUCUGAUGAGUCUUCUUAAAGACGAAACAGC | 1.962 ± 0.011 | 2.002 ± 0.0044
GCUGUCACCGGUGCUUGGUACGUUAUAUUCAGCCGGUCUGAUGAGUCUUCUUAUAGACGAAACAGC | 2 ± 0.028 | 2 ± 0.013
GCUGUCACCGGUGCUUGGUACGUUAUAUUCAGCCGGUCUGAUGAGUCUUCUUACAGACGAAACAGC | 2.003 ± 0.0077 | 1.998 ± 0.0031
GCUGUCACCGGUGCUUGGUACGUUAUAUUCAGCCGGUCUGAUGAGUCUCCUGUUAGACGAAACAGC | 2.02 ± 0.021 | 2.015 ± 0.014
GCUGUCACCGGUGCUUGGUACGUUAUAUUCAGCCGGUCUGAUGAGUCUCCUGUGAGACGAAACAGC | 2.0488 ± 0.00073 | 2.03 ± 0.038
GCUGUCACCGGUGCUUGGUACGUUAUAUUCAGCCGGUCUGAUGAGUCUACUGUUAGACGAAACAGC | 2 ± 0.02 | 2.01 ± 0.037
GCUGUCACCGGUGCUUGGUACGUUAUAUUCAGCCGGUCUGAUGAGUCUACUGUCAGACGAAACAGC | 2.08 ± 0.024 | 2.04 ± 0.059
GCUGUCACCGGUGCUUGGUACGUUAUAUUCAGCCGGUCUGAUGAGUCUCCUUCCAGACGAAACAGC | 2.067 ± 0.019 | 2.01 ± 0.024
GCUGUCACCGGUGCUUGGUACGUUAUAUUCAGCCGGUCUGAUGAGUCUCCUUCAAGACGAAACAGC | 2.07 ± 0.021 | 2.04 ± 0.079

Source: the supplement of paper PMC6757056
